By EC50 is commonly meant the concentration needed to bring the measured effect to its halfway point.

This note sets out measurements from patent US20220098307A1 (WUHAN YZY BIOPHARMA, published 2022).

One test addresses T1, Human CD3ε (human, UniProt P07766 23-126).
T1 construct: CD3 on T cells isolated from human whole blood
In words: flow cytometry, human T cells. Put shortly:
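First, cells were plated on ice at 2×10⁵ per well; second, antibody dilutions (top 3000 nM, 3-fold steps) were added for 2 h at 4° C; third, after washing, PE anti-human IgG Fc (final 8 ug/ml) was added for 1 h at 4° C. EC50 was then fitted from MFI versus concentration.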

The next test has as its target T2, human CEA (human, UniProt P06731 35-685).
T2 sequence: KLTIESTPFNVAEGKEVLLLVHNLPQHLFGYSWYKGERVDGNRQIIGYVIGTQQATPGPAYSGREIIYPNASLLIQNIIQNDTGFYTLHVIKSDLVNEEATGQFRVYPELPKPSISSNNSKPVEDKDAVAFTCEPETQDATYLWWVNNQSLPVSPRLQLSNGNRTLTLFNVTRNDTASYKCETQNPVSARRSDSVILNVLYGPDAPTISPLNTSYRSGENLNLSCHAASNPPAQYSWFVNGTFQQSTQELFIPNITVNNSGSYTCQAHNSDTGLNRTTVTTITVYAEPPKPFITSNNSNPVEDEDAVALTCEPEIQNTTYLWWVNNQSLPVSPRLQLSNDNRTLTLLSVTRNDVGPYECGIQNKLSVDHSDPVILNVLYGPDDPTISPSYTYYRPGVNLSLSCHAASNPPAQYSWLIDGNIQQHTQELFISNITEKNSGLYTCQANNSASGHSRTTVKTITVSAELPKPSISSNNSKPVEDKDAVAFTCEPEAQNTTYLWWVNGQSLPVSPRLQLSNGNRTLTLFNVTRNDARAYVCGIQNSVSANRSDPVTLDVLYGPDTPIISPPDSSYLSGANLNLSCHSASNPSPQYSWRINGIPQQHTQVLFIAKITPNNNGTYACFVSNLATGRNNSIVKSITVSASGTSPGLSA
In words: flow cytometry, human tumor cells (table of the CEA series). The text has this:
1) Cell preparation: T cells isolated from CD3-positive human whole blood were used for a CD3 end affinity detection of multifunctional antibody molecule; positive tumor cells of corresponding antigen were used for detecting affinity of tumor antigen; for example, CD38-positive MM. 1S cells (purchased from the Cell Resource Center of Shanghai Institutes for Biological Sciences, Chinese Academy of Sciences) or RPMI 8226 cells (purchased from the Cell Resource Center of Shanghai Institutes for Biological Sciences, Chinese Academy of Sciences) were used for CD38 antigen detection, and PD-L1 positive H358 cells (purchased from the Cell Resource Center of Shanghai Institutes for Biological Sciences, Chinese Academy of Sciences) were used for PD-L1 antigen detection, and so on. The cells were resuspended with 1% FBS-PBS, adjusted to a density of 4×10⁶/ml, and 50 μl of cells were taken from each well, and then plated at 2×10⁵ per well. Cell plating was operated on ice
2) Addition of the antibody: according to the experimental design, the antibody was diluted gradually, and dilution of antibody was operated on ice. For example, the initial concentration of antibody for dilution was 3000 nM, and the antibody was diluted by 3 times with 11 concentration gradients. The diluted antibody was added to a cell well at 50 μl per well, mixed well, and shaked and incubated at 4° C. 1100 rpm/min for 2 h; after washing, the cells were resuspend in 1% FBS-PBS, and a diluted secondary antibody PE anti-human IgG FC (Biolegend, 409304) was added with a final concentration of 8 ug/ml and a volume of 50 μl/well. At the same time, a well only added with cells and secondary antibody was set as a control, the components were mixed well, and incubated under shaking at 1100 rpm/min at 4° C. for 1 h;
5) Data analysis: the data was analyzed by a flow analysis software FlowJo 7.6 thereby obtaining an average fluorescence intensity of the specific antibody concentration, plotted by a Graphpad Prism 5 with the antibody concentration (nM) as an abscissa and the average fluorescence intensity as an ordinate; the EC50 value was calculated by the method of One site—Specific binding, and the EC50 value indicated the cell affinity of the antibody to the corresponding target antigen.

B1: M3IC-G2D (bispecific antibody)
chain 1: EVKLDETGGGLVQPGRPMKLSCVASGFTFSDYWMNWVRQSPEKGLEWVAQIRNKPYNYETYYSDSVKGRFTISRDDSKSSVYLQMNNLRVEDMGIYYCTGSYYGMDYWGQGTSVTVSSASTKGPSVFPLAPSSKSTSGGTAALGCLVKDYFPEPVTVSWNSGALTSGVHTFPAVLQSSGLYSLSSVVTVPSSSLGTQTYICNVNHKPSNTKVDKKVEPKSCGGGGSGGGGSQVQLVESGGGVVQPGRSLRLSCAASGFTFSTYAMNWVRQAPGKGLEWVARIRSKYNNYATYYADSVKDRFTISRDDSKNTLYLQMNSLRAEDTAVYYCARHGNFGNSYVSWFAYWGQGTLVTVSSASVAAPSVFIFPPSDEQLKSGTASVVCLLNNFYPREAKVQWKVDNALQSGNSQESVTEQDSKDSTYSLSSTLTLSKADYEKHKVYACEVTHQGLSSPVTKSFNRGECDKTHTCPPCPAPPVAGPSVFLFPPKPKDTLMISRTPEVTCVVVDVSHEAPEVQFNWYVDGVEVHNAKTKPREEQFNSTFRVVSVLTVVHQDWLNGKEYKCKVSNKGLPAPIEKTISKTKGQPREPQVYTLPPCRDELTKNQVSLWCLVKGFYPSDIAVEWESNGQPENNYKTTPPVLDSDGSFFLYSKLTVDKSRWQQGNVFSCSVMHEALHNHYTQKSLSLSPGK
chain 2: QTVVTQEPSLTVSPGGTVTLTCRSSTGAVTTSNYANWVQQKPGQAPRGLIGGTNKRAPGVPARFSGSLLGGKAALTLSGVQPEDEAEYYCALWYSNLWVFGGGTKVEIKSSASTKGPSVFPLAPSSKSTSGGTAALGCLVKDYFPEPVTVSWNSGALTSGVHTFPAVLQSSGLYSLSSVVTVPSSSLGTQTYICNVNHKPSNTKVDKKVEPKSC
heavy: EVKLDETGGGLVQPGRPMKLSCVASGFTFSDYWMNWVRQSPEKGLEWVAQIRNKPYNYETYYSDSVKGRFTISRDDSKSSVYLQMNNLRVEDMGIYYCTGSYYGMDYWGQGTSVTVSSASTKGPSVFPLAPSSKSTSGGTAALGCLVKDYFPEPVTVSWNSGALTSGVHTFPAVLQSSGLYSLSSVVTVPSSSLGTQTYICNVNHKPSNTKVDKKVEPKSCDKTHTCPPCPAPPVAGPSVFLFPPKPKDTLMISRTPEVTCVVVDVSHEAPEVQFNWYVDGVEVHNAKTKPREEQFNSTFRVVSVLTVVHQDWLNGKEYKCKVSNKGLPAPIEKTISKTKGQPREPQVCTLPPSRDELTKNQVSLSCAVKGFYPSDIAVEWESNGQPENNYKTTPPVLDSDGSFFLVSKLTVDKSRWQQGNVFSCSVMHEALHNRFTQKSLSLSPGK
light: DVVMTQTPLSLPVSLGDQASISCRSSQSLVHSNGNTYLRWYLQKPGQSPKVLIYKVSNRFSGVPDRFSGSGSGTDFTLKISRVEAEDLGVYFCSQSTHVPWTFGGGTKLEIKRTVAAPSVFIFPPSDEQLKSGTASVVCLLNNFYPREAKVQWKVDNALQSGNSQESVTEQDSKDSTYSLSSTLTLSKADYEKHKVYACEVTHQGLSSPVTKSFNRGEC
notes: structure 3 isotype control; CH2 G2DCH2
B1 yielded a 50% effective concentration (EC50) in the test with Human CD3ε of 607 nM. Moreover, in the test with human CEA, the binding result was “no binding”.

B2: M3IC-GG2 (bispecific antibody)
chain 1: EVKLDETGGGLVQPGRPMKLSCVASGFTFSDYWMNWVRQSPEKGLEWVAQIRNKPYNYETYYSDSVKGRFTISRDDSKSSVYLQMNNLRVEDMGIYYCTGSYYGMDYWGQGTSVTVSSASTKGPSVFPLAPSSKSTSGGTAALGCLVKDYFPEPVTVSWNSGALTSGVHTFPAVLQSSGLYSLSSVVTVPSSSLGTQTYICNVNHKPSNTKVDKKVEPKSCGGGGSGGGGSQVQLVESGGGVVQPGRSLRLSCAASGFTFSTYAMNWVRQAPGKGLEWVARIRSKYNNYATYYADSVKDRFTISRDDSKNTLYLQMNSLRAEDTAVYYCARHGNFGNSYVSWFAYWGQGTLVTVSSASVAAPSVFIFPPSDEQLKSGTASVVCLLNNFYPREAKVQWKVDNALQSGNSQESVTEQDSKDSTYSLSSTLTLSKADYEKHKVYACEVTHQGLSSPVTKSFNRGECDKTHTCPPGPAPPVAGPSVFLFPPKPKDTLMISRTPEVTCVVVDVSHEDPEVQFNWYVDGVEVHNAKTKPREEQFNSTFRVVSVLTVVHQDWLNGKEYKCKVSNKGLPAPIEKTISKTKGQPREPQVYTLPPCRDELTKNQVSLWCLVKGFYPSDIAVEWESNGQPENNYKTTPPVLDSDGSFFLYSKLTVDKSRWQQGNVFSCSVMHEALHNHYTQKSLSLSPGK
chain 2: QTVVTQEPSLTVSPGGTVTLTCRSSTGAVTTSNYANWVQQKPGQAPRGLIGGTNKRAPGVPARFSGSLLGGKAALTLSGVQPEDEAEYYCALWYSNLWVFGGGTKVEIKSSASTKGPSVFPLAPSSKSTSGGTAALGCLVKDYFPEPVTVSWNSGALTSGVHTFPAVLQSSGLYSLSSVVTVPSSSLGTQTYICNVNHKPSNTKVDKKVEPKSC
heavy: EVKLDETGGGLVQPGRPMKLSCVASGFTFSDYWMNWVRQSPEKGLEWVAQIRNKPYNYETYYSDSVKGRFTISRDDSKSSVYLQMNNLRVEDMGIYYCTGSYYGMDYWGQGTSVTVSSASTKGPSVFPLAPSSKSTSGGTAALGCLVKDYFPEPVTVSWNSGALTSGVHTFPAVLQSSGLYSLSSVVTVPSSSLGTQTYICNVNHKPSNTKVDKKVEPKSCDKTHTCPPGPAPPVAGPSVFLFPPKPKDTLMISRTPEVTCVVVDVSHEDPEVQFNWYVDGVEVHNAKTKPREEQFNSTFRVVSVLTVVHQDWLNGKEYKCKVSNKGLPAPIEKTISKTKGQPREPQVCTLPPSRDELTKNQVSLSCAVKGFYPSDIAVEWESNGQPENNYKTTPPVLDSDGSFFLVSKLTVDKSRWQQGNVFSCSVMHEALHNRFTQKSLSLSPGK
light: DVVMTQTPLSLPVSLGDQASISCRSSQSLVHSNGNTYLRWYLQKPGQSPKVLIYKVSNRFSGVPDRFSGSGSGTDFTLKISRVEAEDLGVYFCSQSTHVPWTFGGGTKLEIKRTVAAPSVFIFPPSDEQLKSGTASVVCLLNNFYPREAKVQWKVDNALQSGNSQESVTEQDSKDSTYSLSSTLTLSKADYEKHKVYACEVTHQGLSSPVTKSFNRGEC
notes: structure 3 isotype control; CH2 GG2CH2
In turn, B2 gave an EC50 in the test with Human CD3ε of 609 nM. In addition, in the test with human CEA, the binding result is given as “no binding”.
